The results in this text go back to patent US20180079802A1.

In assay [1] the target is Recombinant CHIKV E2 ectodomain protein (corresponding to the CHIKV-LR2006 strain) (Chikungunya virus strain LR2006). Briefly: BLI competition, E2 ectodomain on anti-Penta-His tip; first mAb CHK-265 (f3).
The target is the same in assay [2]. Description: BLI competition, E2 ectodomain on anti-Penta-His tip; first mAb 1O6.
For assay [3] the target is unchanged. Briefly: BLI competition, E2 ectodomain on anti-Penta-His tip; first mAb 3A2.
Assay [4] has the same target. Description: BLI competition, E2 ectodomain on anti-Penta-His tip; first mAb 5N23.
Assay [5] shares this target. Briefly: BLI competition, E2 ectodomain on anti-Penta-His tip; first mAb 5F10 (r1).
The target is the same in assay [6]. Description: BLI competition, E2 ectodomain on anti-Penta-His tip; first mAb 9D14.
The target is the same in assay [7]. Briefly: BLI competition, E2 ectodomain on anti-Penta-His tip; first mAb CHK-88 (f4).
Assay [8] has the same target. Briefly: BLI competition, E2 ectodomain on anti-Penta-His tip; first mAb CHK-84 (f1).
Assay [9] shares this target. Briefly: BLI competition, E2 ectodomain on anti-Penta-His tip; first mAb 1H12.
Assay [10] shares this target. Description: BLI competition, E2 ectodomain on anti-Penta-His tip; first mAb 4B8.
Assay [11] shares this target. Briefly: BLI competition, E2 ectodomain on anti-Penta-His tip; first mAb 5M16.
For assay [12] the target is unchanged. Briefly: BLI competition, E2 ectodomain on anti-Penta-His tip; first mAb 5O14.
The target is the same in assay [13]. Description: BLI competition, E2 ectodomain on anti-Penta-His tip; first mAb CHK-141 (f2).
The target is the same in assay [14]. Briefly: ELISA, E2 ectodomain coated.

As for CHK-265 (antibody), the percent binding of competing mAb in presence of first mAb in [1] is 2%; in [2] it was 85%; in [3] it was 95%; in [4], 98%; in assay [5], -3%; in assay [6] it was 105%. The percent binding of competing mAb in presence of first mAb was found to be 3% in assay [7]; 92% in assay [8]; 52% in assay [9]; 92% in [10]; 84% in assay [11]; 85% in assay [12]. The percent binding of competing mAb in presence of first mAb in [13] came out at 86%.
On to murine CHK-152 (antibody), for which, in assay [14], the OD is below 0.1 od.
